Results taken from US20110201105A1, “LACTATION-ASSOCIATED POLYPEPTIDES” (Dairy Australia Limited, priority 2007, published 2011).

Legend:
[1] = test system: AGS cells; test: Cell growth using bovine cathelicidin variants in AGS cells (SRB assay); format: cell-based, human; set-up: unit not given here; settings: 72 hours; for cell growth Replicate 3: -ve control 0.233; for cell growth Replicate 1: -ve control 0.247; for cell growth Replicate 4: -ve control 0.265; for cell growth Replicate 2: -ve control 0.316; for cell growth Mean: -ve control mean 0.265
Procedure: A cellular growth assay was performed using seven bovine cathelicidin (CATHL) variants, namely CATHL1, 4, and 6 which are known in the art (the relevant sequences can be obtained using the following hyperlink: http://www.ncbi.nlm.nih.gov/entrez/query.fcqi?db=unigene&cmd=search&term=cathelicidin) and bovine Cathelicidins 8, 9, 10 and 11 (being LAMs 32.8, 32.9, 32.10 and 32.11, respectively) as identified herein and which are derived from LAM 32. The bovine cathelicidin associated LAMs were derived by sequence comparison to the tammar polynucleotide sequence of LAM 32.
The growth rate of AGS cells was assessed in the presence of the cathelicidins. Equal numbers of human gastric epithelial AGS cells were cultured in either control media or media conditioned with bovine cathelicidins for 72 hours in a 1:10 dilution of serum and antibiotic-free Optimem. Cells were then fixed and a Sulforhodamine B (SRB) colorimetric assay was undertaken as described in Journal of Immunological Methods 208: 151-158, K. T. Papazisis, G. D. Geromichalos, K. A. Dimitriadis, A. H. Kortsaris (1997), ‘Optimization of the sulforhodamine B colorimetric assay’.
Briefly, cells were fixed directly by incubation with 10% trichloroacetic acid for 1 hour at 4° C., washed with water, air-dried overnight and then stained with 0.4% w/v sulforhodamine B, 1% acetic acid solution for 10 minutes at room temperature. Cell were again washed with 1% acetic acid and air-dried, then counted in triplicate.

[2] = test system: chicks; test: Chick growth assay (in ovo injection, weight at hatching); format: in vivo; settings: for Chick weight: bovine polypeptides in conditioned media, 1 ml in ovo on day 16 of incubation, weighed on day of hatching, Saline 51.0; for death / overall condition of chick: in ovo injection on day 16 of incubation
Procedure: FIG. 5. Chick growth assay by measuring weight. 10 LAMs (being bovine homologues having homology to specific Tammar ESTs), 3 known bovine cathelicidins, and four bovine cathelicidin variants were tested. Conditioned media containing a LAM polypeptides or bovine cathelicidins or variants thereof was diluted in a total of 1 ml of normal saline. Eggs on day 16 of incubation were injected with 1 ml of the media containing the into the broad end of the egg. Chicks were weighed on day of hatching. The overall condition of the chick was assessed including the possible presence of stumpy legs and/or loss of down feathers.
Conditioned media containing LAM polypeptides or bovine cathelicidins or variants thereof were diluted in a total of 1 ml of normal saline. Eggs on day 16 of incubation were injected in ovo with 1 ml of LAM polypeptides or bovine cathelicidins or variants thereof into the broad end of the egg. Chicks were weighed on day of hatching. Controls included saline only, or saline and 10 mg/ml of a peptide as a random peptide control.
As set out in Table 23, the left column indicates the polypeptide used in the assay while the right column contains chick weight in grams as a measurement of chick growth. Bolded numbers represent a chick(s) larger than the controls and more than 2 standard deviations from the mean. In addition, bolded numbers represent chicks that have been killed. The mean represents the weight of all the chicks tested within this experiment.

[3] = test system: HC11 cells; test: Cell growth with cathelicidins in HC11 cells; format: cell-based, mouse; set-up: cell growth Rep. 1 / cell growth Rep. 2 / cell growth Rep. 3 / cell growth Rep. 4 / cell growth Mean: unit not given here; settings: 72 hours; for cell growth Rep. 1: 1:10 dilution conditioned media, -ve control 0.727; for cell growth Rep. 2: -ve control 0.76; for cell growth Rep. 3: -ve control 0.786; for cell growth Rep. 4: -ve control 0.808; for cell growth Mean: -ve control mean 0.77025; for cell growth versus control (significance): P<0.05 t-test
Procedure: FIG. 2. Cellular growth assay with HC11 cells. Mouse mammary epithelial cells, HC11 cells, were grown in media conditioned with: mock transfection (control), LAM32, LAM32a or LAM32b for 72 hours. Samples were performed in triplicate and the cells from each triplicate counted in triplicate. […] LAM 32 is represented as set forth in SEQ ID NO: 188, and two splice variants thereof, designated LAM32a and 32b as set forth in SEQ ID NO: 215 and 207 respectively.
As shown in FIG. 2 equal numbers of mouse mammary HC11 cells were grown in the presence of either a negative control or tammar wallaby cathelicidin-associated polypeptide, namely LAM 32 (SEQ ID NO: 188), LAM 32a (SEQ ID NO: 215) or LAM 32b (SEQ ID NO: 207) in order to determine the effect of these LAMs on cellular growth.
(§1) HC11 cells were initially plated at 50 percent confluency and cultured for 72 hours in a 1:10 dilution of serum and antibiotic free Optimem and media conditioned with cathelicidin associated polypeptides. The medium was removed and then washed gently for 2 minutes with Mg^2+- and Ca^2+-free phosphate buffered saline (PBS), 0.05% Trypsin and 1:5000 Versene to disrupt cell aggregates. Cells were collected by scraping and washed twice by resuspension in complete medium followed by centrifugation. The cells were again resuspended and counted in triplicate using a Luber haemocytometer.
(§2) The cells were counted in triplicate using a Luber haemocytometer. The negative control was media alone (i.e. conditioned media […] insertless vector). The samples were deemed statistically significant using a t-test comparing the control with the sample if the values of cell growth were 2 standard deviations higher than the mean of the negative control.

[4] = test system: mouse ES cells; test: Cell growth with cathelicidins in mouse ES cells; format: cell-based; set-up: cell growth Rep. 1 / cell growth Rep. 2 / cell growth Rep. 3 / cell growth Mean: unit not given here; settings: 24 hours; for cell growth Rep. 1: 1:10 dilution conditioned media, -ve control 0.34; for cell growth Rep. 3: -ve control 0.352; for cell growth Rep. 2: -ve control 0.474; for cell growth Mean: -ve control mean 0.388666667
Procedure: as §1, with “Mouse ES” for “HC11”, “were” for “were initially”, “24” for “72”, “saline” for “saline (PBS),”
as §2

CATHL4: bovine cathelicidin 4, known in the art (ILPWKWPWWPWRR; UniProt P33046 131-143, looked up) [reference compound]
cell growth Replicate 3 [1]: 0.409 | cell growth Replicate 1 [1]: 0.626 | cell growth Replicate 4 [1]: 0.500 | cell growth Replicate 2 [1]: 0.465 | cell growth Mean [1]: 0.500 | Chick weight [2]: 49.7 grams

B1: LAM 32.8: bovine cathelicidin variant, SEQ ID NO 171 (protein)
chain: METPRASLSLGRWSLWLLLLGLALPSAQRPGPQLQGGRASCLMESASMKKSSEANLYRLLELDPPPKEDDENPNIPKPVSFRVKETVCPRTSQQSPEQCDFKENGLLKYCVGTVSRWDQVGSNFDITCAAPQSVGGLQAWVGRYYVLGKSMAQLLFQ
cell growth Replicate 3 [1]: 0.261 | cell growth Replicate 1 [1]: 0.441 | cell growth Replicate 4 [1]: 0.361 | cell growth Replicate 2 [1]: 0.382 | cell growth Mean [1]: 0.361 | Chick weight [2]: Killed | death / overall condition of chick [2]: caused death of chicks

B2: LAM 32.11: bovine cathelicidin variant, SEQ ID NO 177 (protein)
chain: METQRASLSLGRWSLWLLLLGLVLPSASAQALSYREAMLRAVDQLNERSSEAHLYRLLGASTRPPSGHELGRGTGDEPFSCPALATLLPLHSGCTSCQEGTFPSRWVPTSSRKAVSRDLGHLPAPGYPCLSISAVGIGTLHTWLRFPGLLGSSRDGGVTGSVR
cell growth Replicate 3 [1]: 0.563 | cell growth Replicate 1 [1]: 0.365 | cell growth Replicate 4 [1]: 0.431 | cell growth Replicate 2 [1]: 0.366 | cell growth Mean [1]: 0.431 | chick size versus controls ([2]; body weight relative to mean/median of all chicks tested): produced a chick larger than the controls | Chick weight [2]: 59^ grams

B3: LAM 32.10: bovine cathelicidin variant, SEQ ID NO 175 (protein)
chain: METQRASLSLGRWSLWLLLLGLVLPSASAQALSYREAMLRAVDQLNERSSEAHLYRLLELDPPPDMSWGGDRGRAFLLPALATLLPLHSGCTSCQEGTFPSRWVPTSSRKASQTWVISQHQASCLSISAVGIGTLHTWLKFPGLLGAPGMGGS
cell growth Replicate 3 [1]: 0.534 | cell growth Replicate 1 [1]: 0.602 | cell growth Replicate 4 [1]: 0.514 | cell growth Replicate 2 [1]: 0.405 | cell growth Mean [1]: 0.514 | Chick weight [2]: 53.8 grams

B4: LAM 32.9: bovine cathelicidin variant, SEQ ID NO 173 (protein)
chain: METPRASLSLGRCSLWLLLLGLVLPSASAQALSYREAVLRAVDQFNERSSEANLYRLLELDPTPNDVSYEGIWAGRPASWGAGRQIRGRRMSPNPVSPTLTHDQDLDPGTRKPVSFRVKETDCPRTSQQPLEQCDFKENGVSLGAGEKNGRCFPGIGQRAWGRLPIPGRRPGGYGHRGFSLTLNLPFQLVKTVCGTARHQHN
cell growth Replicate 3 [1]: 0.220 | cell growth Replicate 1 [1]: 0.246 | cell growth Replicate 4 [1]: 0.229 | cell growth Replicate 2 [1]: 0.220 | cell growth Mean [1]: 0.229 | Chick weight [2]: 46.5 grams | death / overall condition of chick [2]: caused stumpy legs and loss of down

B5: LAM 32a: splice variant of tammar wallaby LAM 32, SEQ ID NO 215 (protein)
chain: MRDSTMQVLLLVLGLLSLMTSLACAQDQPYQDVLNRFIQEYNTKSESESLFRLSVLNLPPEESNDPAVPLLKFTIRETVCPKTEHRNADECDFKKNGLVKQCIGTIDLDSPNPSVDISCDRPAKVKRGLWESLKRKATKLGDDIRNTLRNFKIKFPVPRQG
cell growth Rep. 1 [3]: 0.958 | cell growth Rep. 2 [3]: 0.977 | cell growth Rep. 3 [3]: 1.008 | cell growth Rep. 4 [3]: 1.102 | cell growth Mean [3]: 1.011 | cell growth versus control (significance) [3]: significantly more cells | cell growth versus control (significance) [4]: significantly different growth from the control | cell growth Rep. 1 [4]: 0.575 | cell growth Rep. 3 [4]: 0.517 | cell growth Rep. 2 [4]: 0.605 | cell growth Mean [4]: 0.5657

B6: LAM 32b: splice variant of tammar wallaby LAM 32, SEQ ID NO 207 (protein)
chain: MRGLTMQVLLLVLGLLSLMTPLGYAQDQPYQDVLNRFIQEYNTKSESESLFRLSVLNLPSQESNDPTAPQLLKFTIRETVCSKSEHRNPEECDFKKNGVRVSWAGKGF
cell growth Rep. 1 [3]: 0.89 | cell growth Rep. 2 [3]: 0.841 | cell growth Rep. 3 [3]: 0.862 | cell growth Rep. 4 [3]: 0.832 | cell growth Mean [3]: 0.8562 | cell growth versus control (significance) [3]: significantly more cells | cell growth versus control (significance) [4]: significantly different growth from the control | cell growth Rep. 1 [4]: 0.676 | cell growth Rep. 3 [4]: 0.693 | cell growth Rep. 2 [4]: 0.677 | cell growth Mean [4]: 0.682
